The values below come from patent publication US20250295734A1, “ANTICOAGULANT PROTEINS AND THEIR USE FOR TREATING DISEASES ASSOCIATED WITH THE ACTIVATION OF NEUTROPHILS” (BIOXODES, priority 2018, published 2025).

The test system of assay [1] is human washed platelets. The assay is described as follows: In vitro platelet aggregation assay. It is filed as cell-based. On the procedure:
Blood from healthy human donors, who had not taken anti-platelet agents within the 15 days prior to collection, was collected in citrated tubes and centrifuged for 13 min at 200 g. The platelet-rich plasma was collected and centrifuged for 13 min at 900 g in Tyrode buffer (138 mM NaCl, 2.9 mM KCl, 12 mM NaHCO3, 5.5 mM glucose, 1.8 mM CaCl2 and 0.4 mM MgCl2, pH 7.4) containing 0.2% BSA, apyrase 0.02 U/mL and PGI2 500 nM. Washed platelets were resuspended in the Tyrode/BSA 0.2%/apyrase/PGI2 solution and centrifuged at 900 g for 13 min. Platelets were resuspended in a Tyrode/BSA 0.2% solution at a concentration of 3.10^8 platelets/mL. Platelets were kept at 37° C. for 30 min in a solution containing […]. Next, platelets were incubated at 37° C. under agitation for 5 to 10 minutes in an aggregometer APACT 4004 with ADP (adenosine diphosphate), TRAP (Thrombin Receptor-Activating Peptide) and/or Ir-CPI.
The effect of Ir-CPI on platelet aggregation was assessed in vitro by using isolated human washed platelets (n=1).

In assay [2] the test system is neutrophils isolated from the bone marrow of femurs of mice. The assay is described as follows: In vitro NETosis assay. The class given is cell-based, mice (C57BL/6). The following applies: PMNs primed with TNFα, activated with PAF. The protocol: Neutrophils were isolated from the bone marrow of femurs of mice (C57BL/6) as previously described (Hu 2012) using FR-1-coupled magnetic beads (anti-Ly6G Microbead Kit, Miltenyi Biotec).
Cells were harvested, centrifugated and incubated during 30 min with or without 2 ng/ml of TNFα in Hanks solution (Gibco). Neutrophils were seeded on slides coated with poly-L-lysine and incubated at 37° C. for 1 h in Hanks solution. Next, neutrophils were activated with or without 25 μM of platelet-activating factor (PAF)±Ir-CPI (0.65 or 2 μM) in Hanks solution (3 h at 37° C.). NET formation was assessed by immunofluorescence (fluorescent microscope from Leica) after fixation of neutrophils with 4% PAF (paraformaldehyde) and fluorescent labelling of citrullinated histones (H3 antibody) and nuclei (Hoechst). Processing and analysis of images was performed using the FIJI software.
Percentage of NETosis (median) was presented for 5 independent experiments. A Wilcoxon test was used for statistical analysis (ns: not significant; *p<0.05; **p<0.01; ***p<0.001). […]

Assay [3] relates to neutrophils isolated from bone marrow of femurs of mice. Nature of the assay: Neutrophil activation following incubation with TNFα (flow cytometry). The class given is cell-based, mice (C57BL/6). On the procedure:
Neutrophils were isolated from the bone marrow of femurs of mice (C57BL/6) as previously described (Hu 2012), using FR-1-coupled magnetic beads (anti-Ly6G Microbead Kit, Miltenyi Biotec). For activation with TFNα, cells were harvested, centrifugated and incubated during 30 min with or without 2 ng/ml of TNFα in Hanks solution (Gibco). Next, neutrophils were incubated with Ir-CPI (0.65 or 2 μM) in Hanks solution (1 h at 37° C.). For activation with ATP, cells were harvested, centrifugated and incubated with ATP 10 μM and Ir-CPI (0.65 or 2 μM) in Hanks solution (1 h at 37° C.). After washing of cells, expression of CD11b, activated CD11b or Ly6G was assessed by flow cytometry (Beckman Coulter Gallios). Antibodies used for neutrophil identification and activation analyses were IRR IgG1-FITC (irrelevant antibody), anti-CD45-APC, anti-Ly6G-PE and anti-CD11b-FITC or Alexa Fluor 647 anti-activated CD11b-. Analysis of results was performed using the Kaluza software (Beckman Coulter). […]
Neutrophils isolated from bone marrow of femurs of mice were submitted to different in vitro experimental conditions (untreated control, priming with TNFα and/or incubation with Ir-CPI) to assess the effect of Ir-CPI on their activation status. The activation status was assessed by analyzing the percentage of CD11b expression at the surface of neutrophils (FIG. 16).
Background: A flow cytometer gives signals particle by particle.

Assay [4] deals with Factor Xa (Homo sapiens, UniProt P00742). The conditions noted are these: cited from earlier work.
Assay [5] concerns the target T1, FXIIa (Homo sapiens, UniProt P00748).
T1 construct: The resulting α-FXIIa has a heavy chain of 50 kDa, connected to a light chain of 28 kDa
T1 sequence (P00748 20-372 limits assumed): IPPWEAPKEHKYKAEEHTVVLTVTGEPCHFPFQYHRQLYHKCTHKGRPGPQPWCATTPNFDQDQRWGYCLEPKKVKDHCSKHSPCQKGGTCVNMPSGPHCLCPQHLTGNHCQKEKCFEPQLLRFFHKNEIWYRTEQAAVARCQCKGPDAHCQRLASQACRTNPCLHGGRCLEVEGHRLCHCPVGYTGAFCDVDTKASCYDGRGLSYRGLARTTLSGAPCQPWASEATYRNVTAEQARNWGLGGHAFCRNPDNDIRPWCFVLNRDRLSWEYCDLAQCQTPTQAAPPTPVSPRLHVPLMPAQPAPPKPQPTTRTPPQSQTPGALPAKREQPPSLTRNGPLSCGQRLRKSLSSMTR
T1 sequence (P00748 373-615 limits assumed): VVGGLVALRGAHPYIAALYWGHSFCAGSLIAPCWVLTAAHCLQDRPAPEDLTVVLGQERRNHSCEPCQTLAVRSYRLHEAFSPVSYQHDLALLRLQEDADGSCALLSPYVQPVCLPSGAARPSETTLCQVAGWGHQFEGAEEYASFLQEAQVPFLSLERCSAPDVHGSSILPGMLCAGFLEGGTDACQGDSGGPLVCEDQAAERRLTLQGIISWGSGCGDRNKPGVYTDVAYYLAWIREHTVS
The following applies: cited from earlier work.

For assay [6], the system named is clot fibrinolysis. The conditions noted are these: dose-dependent; in a lesser extend than aPTT; cited from earlier work.
Where [7] appears, read: Ir-CPI 500 μg/100 μL injected alone and then TRAP 20 μM at about 230 sec.
[8] abbreviates: TRAP 20 μM + Ir-CPI 500 μg/100 μL injected together.
[9] abbreviates: agent alone (TRAP 20 μM, ADP 20 μM or Ir-CPI 500 μg/100 μL), n=1.

Where “and” joins values, the source holds several entries; their conditions need not be identical. Identical values can stand only once. Entries after “also recorded” stand apart in the source; their conditions may differ.

Chain of Factor Xa (P00742 41-179 limits assumed): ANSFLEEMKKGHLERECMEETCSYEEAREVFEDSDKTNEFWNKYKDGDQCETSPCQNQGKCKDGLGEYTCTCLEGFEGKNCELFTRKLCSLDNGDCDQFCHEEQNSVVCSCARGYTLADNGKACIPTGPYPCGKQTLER
Chain of Factor Xa (P00742 235-488 limits assumed): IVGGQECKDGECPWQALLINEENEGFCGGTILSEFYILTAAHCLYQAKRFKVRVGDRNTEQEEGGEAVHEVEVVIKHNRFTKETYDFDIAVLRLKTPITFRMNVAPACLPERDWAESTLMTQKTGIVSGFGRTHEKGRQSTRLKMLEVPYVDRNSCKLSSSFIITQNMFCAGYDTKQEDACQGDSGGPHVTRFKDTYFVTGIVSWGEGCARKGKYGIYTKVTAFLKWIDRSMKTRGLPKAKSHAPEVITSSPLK

B1: Ir-CPI: Ixodes ricinus salivary gland polypeptide, contact phase inhibitor, MW=7660 Da; sequence SEQ ID NO: 1 or SEQ ID NO: 2 (protein)
chain: ANHKGRGRPAKCKLPPDDGPCRARIPSYYFDRKTKTCKEFMYGGCEGNENNFENITTCQEECRAKKV
With B1, the figures for the “Aggregation Latency” value in assay [1] (setting [7]), in assay [1] (setting [8]) and in assay [1] (setting [9]) were 231.2 s, 98.6 s and 70.0 s, respectively. The “Aggregation Max” value is 73.5% in assay [1] (setting [7]); 71.7% and 71.8% in assay [1] (setting [8]); 4.1% in assay [1] (setting [9]). Also, the “Aggregation Slope” value in assay [1] (setting [7]) worked out at 31.1 %/min; in assay [1] (setting [8]) it was 35.1 %/min; in assay [1] (setting [9]), 16.2 %/min. Besides, the “activation of platelet aggregation” value in assay [1] (Ir-CPI alone added to washed platelets) was “did not activate platelet aggregation”. Besides, the “effect on TRAP-induced platelet aggregation” value in assay [1] (Ir-CPI and TRAP, compared to TRAP alone) is “did not significantly modify platelet aggregation; also recorded: does not inhibit platelet aggregation”. The “percentage of NET formation” value is reported as “significant reduction” in assay [2] (Ir-CPI 0.65 μM, *p<0.05 vs TNFα and PAF); “significant reduction” in assay [2] (Ir-CPI 2 μM, ***p<0.001 vs TNFα and PAF). In assay [3] (neutrophils primed with TNFα, Ir-CPI 2 μM, *p<0.05), the “CD11b expressed at cell surface” value is “significant reduction”. In addition, the “expression of CD11b” value in assay [3] (untreated neutrophils, Ir-CPI 0.65 and 2 μM) is reported as “no effect”. The “activity on Factor Xa” value in assay [4] is “totally inactive”. For the same molecule, the “binding to FXIIa” value in assay [5] was “binds”. Besides, the clot fibrinolysis time entry in assay [6] is on record as “prolongs”.
